Variants at the floor of the assay were thinned out.
B1: TPR 5TU (parent)
chain: GGAUCUUCUCGAUCUAACAAAAAAGACAAAUCUGCCACAAAGCUUGAGAGCAUCUUCGGAUGCAGAGGCGGCAGCCUUCGGUGGCGCGAUAGCGCCAACGUUCUCAACUAUGACACGCAAAACGCGUGCUCCGUUGAAUGGAGUUUAUCAUG

Variants of: B1
Test: polymerase ribozyme fitness, log enrichment relative to wild type (log ratio); higher = more active; in vitro selection for triplet polymerase activity
Method in brief: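 Mutant libraries were PCR-built and transcribed for each subunit of a heterodimeric triplet polymerase ribozyme and selected for one round in triplicate at −7 °C, frozen, before gel excision of extended constructs and streptavidin-bead capture. Input and output libraries were Illumina-sequenced, keeping genotypes with ≥10 input reads and ≥1 read per output. Fitness is a logarithmic ratio of genotype to wild-type enrichment, in base 2, using inverse-variance-weighted replicate averages.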

Row | Variant | polymerase ribozyme fitness (log ratio)
1 | GGAUCUUCUCGAUCUAACAAAGAAGACAAAUCUGCCACCAAGCUUGAGAGCAUCUACGGAUGCAGAGGCGGCAGCCUUCUGUGGCGCGAUAGCGCCAACGUUCUCAACUAUGACACGCAAAACGCGUGCUCCGUUGAAUGGAGUUUAUCAUG [A22G A39C U56A G80U] | ≤ -4.2
2 | GGAUCUUCUCGAUCUAACAAACAAGACAAAUCUGCCACAAAGCUUGAGAGCAUCUUCGGAUGCAGAGGCGGCAGCCUUCGGUGGCGCGAUAGCGCCAACGUUCUCAACUAUGACACGCAAAACGCGUGCUCCGUUGAAUGGAGGUUAUCAUG [A22C U144G] | 0.903
3 | GGAUCUUCUCGAUCUAACAAAGAAGACAAAUCUGCCACAAAGCUUGAGAGCGUCUUCGGAUGCAGAGGCGGCAGCCUUCGGUGGCGCGAUAGCGCCAACGUUCUCAACUAUGACACGCAAAACGCGUCCUCCGUUGAAUGGAGUUUAUCAUG [A22G A52G G128C] | -3.48
4 | GGAUCUUCUCGAUCUAACAAAGAAGACAAUUCUGCGACAAAGCUUGAGAGCAUCUUCGGAUGCAGAGGCGGCAGCCUUCGGUCGCGCGAUAGCGCCAACGUUCUCAACUAUGACACGCAAAACGCGUGCUCCGUUGAAUGGAGUUGAUCAUG [A22G A30U C36G G83C U146G] | ≤ -4.2
5 | GGAUCUUCUCGAUCUAACAAAGAAGACAAAUCUGCGACAAAGCUUGAGAGCAUCUUCGGAUGCAGAGGCGGCAGCCUUCGUUGGCGCGCUAGCGCCCACGUUCUCAACUAUGACAAGCAAAACGCGUGCUCCGUUGAAUGGAGUUUAUCAUG [A22G C36G G81U A89C A97C C116A] | ≤ -4.2
6 | GGAUCUUCUCGAUCUAACAAAGAUGACAAAUCUGCCACAAAGCUUGAGAGCAUCAUCGGAUGCAGAGGCGGCAGGAUUCGGUGGCGCGAUAGCGGCAACGUUCUCAACUAUGACACGCAAAACUCGUGCUCCGUUUAAUGGAGUUUAUCAUG [A22G A24U U55A C75G C76A C95G G124U G136U] | ≤ -4.2
7 | GGAUCUUCUCGAUCUAACAAACAAGACAAAUCUGCCACAAAGCUUGAGAGCAUCUUCGGAUGCAGAGGCGGCAGCCUCCGGUGGCGCGAUAGCGCCAGCGUGCUCAACUAUGACACGCAAAACGCGUGCUCCGUUGAAUGGAGUUUAUCAGG [A22C U78C A98G U102G U151G] | ≤ -4.2
8 | GGAUCUUCUCGAUCUAACAAAGAAGACAUAUCUGCCACAAAGCUUGAGAACAUCUGCGGAUGCAGAGGCGGCAGCCUUCGGUGGCGUGAUAGCGCCAACGUUCUCAACUAUGACACGUAAAACGCGUGCUCCGUUGAAUGGAGUUUAUCAUG [A22G A29U G50A U56G C87U C118U] | ≤ -4.2
9 | GGAUCUUCUCGAUCUAACAAAGAAGACAAAUCUGCUACAAAGCUUGAGAGCAUCUUCGGAUGCAGAGGCGGCAGCCUUCGGUGGCGUGAUAGCGCCAACGUUCUCAACUAUGACACGCAAAACGCGUGCUCCGUUGAAUGGAGUUUAUCAUG [A22G C36U C87U] | -3.06
10 | GGAUCUUCUCGAUCUAACAAAGAUGACAAAUCUGCCACAAAGCUUGAGAGCAUCUUCGGAUGGAGAGGCGGCAGCCUUCGGUGGCGCGAUAGCGCCAACGUUCUCAACUAUGACACGCAAAACGCGUGCUCCGUUGAAUGGAGUUUAUCAUG [A22G A24U C63G] | 2.39
11 | GGAUCUUCUCGAUCUAACAAAGUAGACAAAUCUGACACAAAGCUUGAGAGCAUCUUCGGAUGCAGAGGCGGCAGACUUCGGUGGCGCGAUAGCGGCAACGUUCUCAACUAUGACACGCAAAACGCGUGCUCCGUUGAAUGGAGUUUAUCAUG [A22G A23U C35A C75A C95G] | ≤ -4.2
12 | GGAUCUUCUCGAUCUAACAAAGAAGACAAAUCUGCCACAAAGCUUGAGAGUAUCUUCGGAUGCAGAGGCGGCAGCCUGCGGUGGCGCGAUAGCGUCAACGUUCUCAGCUAUGACACGCAAAACGCGUGCUCCGUUGAAUGGAGUUCAUCAUG [A22G C51U U78G C95U A107G U146C] | ≤ -4.2
13 | GGAUCUUCUCGAUCUAACAAAGAAGACAAAUCUGCCACAACGCUUGAGAGCAUCUUCGGAUUCAGAGGCGGCAGCCUUCGGUGGCGCGAUAGAGUCAACGUUCUAAACUAUUACACGCAAAAGGCGUGCUCCGCUGAAUAUAGUUUAUCAUG [A22G A41C G62U C93A C95U C105A G112U C123G U134C G140A G141U] | ≤ -4.2
14 | GGAUCUUCUCGAUCUAACAAAGAAGACAAAUCUGCAACAAAGCUUGAAAGCAUCUUCGGAUGCAGAGGCGGCAGCCUUCGGUGGCGCGAUAGCGGCAACGUUCUCAACUAUGACACGCAAAACGCGUGCUCCGUUGAAUCGAGUUUAUCAUG [A22G C36A G48A C95G G140C] | ≤ -4.2
15 | GGAUCUUCUCGAUCUAACAAAGAAGACAAAUCUGCCACAAAGCUUGAGAGCUUCUUCGGAUGCAGAGGCGGCAGCCUUCGGUGGUGCGAUAGCGCCAACGUUCUCAACGAUGACACGCAAAACGCGUGCUCCGUUGAAUGGAGUUUAUCAUG [A22G A52U C85U U109G] | -3.97
16 | GGAUCUUCUCGAUCUAACAAAGAAGAAAGAUCUGCCAUAAAGCUUGAGACCAUCUUCGGAUGCAGAGGCGGUAGCCUUCGGUGACGCGAUAGCGCCAACGUUCUCAACUAUGACACGAAAAACGCGUGCUCCGUUGAAUGGAGUUUAUCAUG [A22G C27A A29G C38U G50C C72U G84A C118A] | ≤ -4.2
17 | GGAUCUUCUCGAUCUAACAAAGAAGACAAAUCUGCCACAGAGCUUGAGAGCCUCUUCGGAUGCAGAGGCGGCAGUCUUCGGUGGCGCGAUAGCGCCAAAGUUCUCAGUUAUGACACGCAAAACGCGUGCUCCGAUGAAUGGAGUUUAUCAUG [A22G A40G A52C C75U C99A A107G C108U U134A] | ≤ -4.2
18 | GGAUCUUCUCGAUCUAACAAAGAAGAUAAAUCUGCCACAAAGCUUGUGAGCAUCUGGGGAUGCAGAGGCGGCAGCCAUCGGUGGCGCGAUAGAGCCAACGUUCUCAACUAUGACACGCAAAACGCGUGCUCCGUUGAAUGGAAUUUAUCAUG [A22G C27U A47U U56G C57G U77A C93A G143A] | ≤ -4.2
19 | GGAUCUUCUCGAUCUAACAAACAAGACAAAUCUGCCACAAAGCUUGAGAGCAUCUUCGGAAGCAGAGGCGGCAGCCUUCGGUGGCGCAAUAGCGCCAACGUUCUCACCUCUGACACGCAAAAGGCGUGCUCCGUUGAAUAGAGUUUAUCAUG [A22C U61A G88A A107C A110C C123G G140A] | ≤ -4.2

From the RNAGym collection of RNA variant scans (doi:10.1073/pnas.2313332121)
